In US20250109193A1 (FLAGSHIP PIONEERING INNOVATIONS VI, published 2025):
Positions count from the first letter of the chain named.

T1: cynomolgus monkey TSLP (cynomolgus monkey)
T1 chain: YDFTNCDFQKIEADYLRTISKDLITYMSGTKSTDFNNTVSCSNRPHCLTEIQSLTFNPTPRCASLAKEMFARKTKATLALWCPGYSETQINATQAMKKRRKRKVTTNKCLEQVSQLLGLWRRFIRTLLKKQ

T2: human IL-7 (human, UniProt P13232 26-177)
T2 construct: also called hIL-7
T2 sequence (looked up): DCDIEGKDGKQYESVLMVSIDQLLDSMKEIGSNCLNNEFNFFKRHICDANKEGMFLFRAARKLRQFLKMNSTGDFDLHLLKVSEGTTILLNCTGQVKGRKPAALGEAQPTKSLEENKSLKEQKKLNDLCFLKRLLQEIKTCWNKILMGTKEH

T3: mouse TSLP (mouse, UniProt Q9JIE6 20-140)
T3 construct: also called mouse TSLP cytokine
T3 sequence (looked up): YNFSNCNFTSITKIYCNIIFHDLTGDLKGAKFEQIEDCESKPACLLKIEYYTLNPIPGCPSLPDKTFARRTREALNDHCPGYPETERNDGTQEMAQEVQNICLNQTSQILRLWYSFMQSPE

B1: AB-11 (antibody, V domains shown)
VH: QMQLVESGGGVVQPGRSLRLSCAASGFTFRTYGMHWVRQAPGKGLEWVAVISYSGSYIHYADSVKGRFTITRDNSKNTLNLQMNSLRAEDTAVYYCTRSPQWEEVYEALDIWGQGTMVTVSS
VL: SYVLTQPPSVSVAPGQTARITCGGNNIGSFSVHWYQQKPGQAPVLVVYDDSDRPSWIPERFSGSNSGNTATLTISRGEAGDEADYYCQVWSSTSRHVVFGGGTKLTVL
B2: AB-13 (antibody, V domains shown)
VH: B1 VH with S54D, Y57T, I58K, T97A, S99A, E104S, L109F
VL: B1 VL with I27L, S91D, T93S, S94E, R95D, H96L
B3: AB-1 (antibody, V domains shown)
VH: B1 VH with I51V, S52W, I58T, T97S, E104D, V105I, Y106F, L109M
VL: B1 VL with F30K, S91D, T93S, R95S, H96L
B4: AB-5 (antibody, V domains shown)
VH: QMQLVESGGGVVQPGRSLRLSCAASGFTFRTYGMHWVRQAPGKGLEWVAVVWYDGYDTHYADSVKGRFTITRDNSKNTLNLQMNSLRAEDTAVYYCSRSPQWEDIFESMDIWGQGTMVTVSS
VL: B1 VL with I27L, F30K, S91D, S92M, T93S, R95D, H96L
B5: AB-12 (antibody, V domains shown)
VH: B4 VH with Y56S, D57N, S97A, S99A, D104S, I105V, F106H, S108A, M109F
VL: B1 VL with S29R, S91V, R95D, H96K
B6: AB-6 (antibody, V domains shown)
VH: B4 VH with Y56S, T58I
VL: B1 VL with F30K, V89I, S91D, T93S, R95D
B7: AB-10 (antibody, V domains shown)
VH: B4 VH with V51I, D54S, Y56T, D57T
VL: B1 VL with F30K, S31N, S91D, T93S, S94D, R95F, H96L
B8: AB-4 (antibody, V domains shown)
VH: B4 VH with V51I, D54S, Y56S, S97A, I111V
VL: B1 VL with N26Y, V89I, W90Y, S91V, T93A, H96L
B9: AB-2 (antibody, human IgG1, V domains shown)
VH: B4 VH with Y56S, D57Y, S97A, D104E, S108A
VL: B1 VL with F30K, V89I, S91D, T93S, R95S, H96L
B10: AB-7 (antibody, V domains shown)
VH: B4 VH with V51I, D54S, Y56A, D57Y, T58I, S108A
VL: B1 VL with I27L, F30Y, S91D, S92M, T93S, R95S, H96L
B11: AB-14 (antibody, V domains shown)
VH: B1 VH with S52W, S54D, Y57T, I58K, T97A, S99A, E104L, Y106H, L109F
VL: B1 VL with F30K, S31N, S91D, S92E, T93S, R95D, H96E
B12: AB-3 (antibody, V domains shown)
VH: B4 VH with V51I, Y56T, D57Y, S97A, D104S, S108A, M109F
VL: B1 VL with F30K, S91D, T93S, R95S, H96L
B13: AB-9 (antibody, V domains shown)
VH: B4 VH with V51I, Y56S, D57Y, S97A, D104S, S108A, M109F
VL: B1 VL with F30K, S91D, T93S, R95S, H96L
B14: AB-8 (antibody, V domains shown)
VH: B4 VH with V51I, Y56S, D57Y, S97A, S108A, M109F
VL: B1 VL with F30K, S91D, T93S, R95S, H96L
B15: AB-2a (antibody, human IgG1, lambda)
heavy: not shown
light: SYVLTQPPSVSVAPGQTARITCGGNNIGSKSVHWYQQKPGQAPVLVVYDDSDRPSWIPERFSGSNSGNTATLTISRGEAGDEADYYCQIWDSSSSLVVFGGGTKLTVLGQPKAAPSVTLFPPSSEELQANKATLVCLISDFYPGAVTVAWKADSSPVKAGVETTTPSKQSNNKYAASSYLSLTPEQWKSHRSYSCQVTHEGSTVEKTVAPTECS
B16: AB-2b (antibody, human IgG1, lambda)
heavy: QMQLVESGGGVVQPGRSLRLSCAASGFTFRTYGMHWVRQAPGKGLEWVAVVWYDGSYTHYADSVKGRFTITRDNSKNTLNLQMNSLRAEDTAVYYCARSPQWEEIFEAMDIWGQGTMVTVSSASTKGPSVFPLAPSSKSTSGGTAALGCLVKDYFPEPVTVSWNSGALTSGVHTFPAVLQSSGLYSLSSVVTVPSSSLGTQTYICNVNHKPSNTKVDKRVEPKSCDKTHTCPPCPAPELLGGPSVFLFPPKPKDTLYITREPEVTCVVVDVSHEDPEVKFNWYVDGVEVHNAKTKPREEQYNSTYRVVSVLTVLHQDWLNGKEYKCKVSNKALPAPIEKTISKAKGQPREPQVYTLPPSREEMTKNQVSLTCLVKGFYPSDIAVEWESNGQPENNYKTTPPVLDSDGSFFLYSKLTVDKSRWQQGNVFSCSVMHEALHNHYTQKSLSLSPGK
light: B15 light
B17: Reference Antibody (antibody, human IgG2, lambda, V domains shown)
VH: B1 VH with S52W, S54D, Y57N, I58K, T97A, S99A, E104L, Y106H, L109F
VL: SYVLTQPPSVSVAPGQTARITCGGNNLGSKSVHWYQQKPGQAPVLVVYDDSDRPSWIPERFSGSNSGNTATLTISRGEAGDEADYYCQVWDSSSDHVVFGGGTKLTVLG
notes: Comparator anti-TSLP antibody with an IgG2 heavy chain constant domain and lambda light chain

Each binder was assayed against T4, human thymic stromal lymphopoietin (TSLP) (human, UniProt Q969D9 29-159) (assay: indirect ELISA, coated recombinant hTSLP).
T4 construct: also called hTSLP; human TSLP
Protocol: The next day, the plate was washed three times with ELISA Wash Buffer (PBS-Tween 0.5%), blocked with 1×ELISA assay diluent (BioLegend) for one hour. […] The plate was washed three times with ELISA Wash Buffer, and horseradish peroxidase (HRP)-conjugated anti-human IgG Fc secondary antibody (Promega, Madison, WI) at 1:2000 dilution in 1×ELISA assay diluent was added to detect binding of the primary antibody to the antigen. The plate was incubated for 30 minutes at 37° C. with the secondary detection antibody, then the plate was washed and developed with tetramethyl benzidine (TMB) substrate solution (Thermo Fisher Scientific, Waltham, MA). The HRP enzymatic reaction was stopped after about 1 minute with acidic stop solution (Thermo Fisher Scientific), and the absorbance at 450 nm was determined using a standard plate reader. The EC₅₀ values were calculated by fitting a four-parameter non-linear regression line to the average of two technical replicates per concentration.

| Binder | EC50 |
| --- | --- |
| B1 | 173 pM |
| B2 | 230 pM |
| B3 | 265 pM |
| B4 | 264 pM |
| B5 | 291 pM |
| B6 | 397 pM |
| B7 | 286 pM |
| B8 | 260 pM |
| B9 | 204 pM |
| B10 | 290 pM |
| B11 | 264 pM |
| B12 | 237 pM |

These binders were tested against T4, human thymic stromal lymphopoietin … (assay: blocking ELISA: antibody titrated against hTSLP-biotin, coated hTSLPR/hIL-7Rα-Fc).
Protocol: A 96 well half area flat bottom plate was coated with 50 μL of recombinant heterodimeric human TSLPR and human IL-7Rα Fe tagged fusion protein (2 μg/mL) in ELISA coating buffer. The plate was incubated overnight at 4° C. and was washed thrice with 150 μL ELISA Wash Buffer (1×PBS-Tween 0.5%) the next day. The plate was blocked with 50 μL of ELISA assay diluent for one hour at 37° C. and was washed three times with 150 μL of ELISA wash buffer. […] The ELISA plate was incubated for 1 hour at 37° C. followed by washing three times with ELISA wash buffer. HRP-Streptavidin (Thermo Fisher Scientific) was diluted 1:2000 in ELISA assay diluent 50 μl was added to each well and incubated for 30 minutes at 37° C. followed by washing three times with ELISA wash buffer. The ELISA was developed by addition of 50 μL of TMB substrate (Thermo Fisher Scientific) and incubation for 2-3 minutes at room temperature (protected from light). The reaction was stopped with acidic stop solution (Thermo Fisher Scientific), and the absorbance was read at 450 nm wavelength using a standard plate reader. Percent inhibition of signal and IC₅₀ values were determined.
A blocking ELISA was performed by coating an ELISA plate with hTSLPR overnight. […] The ELISA plate was incubated for 1 hour at 37° C., followed by washing of the plate. […] The ELISA was developed with TMB substrate, and the HRP enzymatic reaction was stopped with sulfuric acid solution.

| Binder | IC50 |
| --- | --- |
| B1 | 243 pM |
| B2 | 223 pM |
| B4 | 246 pM |
| B5 | 290 pM |
| B7 | 250 pM |
| B13 | 226 pM |
| B9 | 290 pM |
| B10 | 162 pM |
| B11 | 186 pM |
| B12 | 232 pM |

These binders were tested against T4, human thymic stromal lymphopoietin … (assay: KinExA, solution equilibrium, 25 C).
Protocol: The solution equilibrium binding experiments were performed using KinExA 3200 instrument equipped with an autosampler (Sapidyne Instruments, Boise, ID, USA). All analyses were performed at 25° C., and all samples were prepared in 1× phosphate-buffered saline (PBS) filtered buffer supplemented with 1 mg/mL bovine serum albumin (BSA) and 0.02% sodium azide. […] The beads were washed with blocking buffer (1 M Tris supplemented with 10 mg/mL BSA, pH 8.0) and rocked for 1 hour.
The sample injection volumes and flow rates were varied depending upon the antibody tested. […] The concentration, volume and flow rate of the secondary antibody were varied to achieve a signal at less than 1.0 V.
A 1:1 binding equilibrium model was used with the titrant selected as the reference concentration. The drift correction option was used where appropriate.

| Binder | Kd |
| --- | --- |
| B14 | 0.335 pM |
| B1 | 0.754 pM |
| B3 | 0.208 pM |
| B4 | 0.14 pM |
| B5 | 1.02 pM |
| B6 | 0.133 pM |
| B7 | 0.395 pM |
| B13 | 0.496 pM |
| B8 | 0.208 pM |
| B9 | 0.123 pM |
| B10 | 0.184 pM |
| B11 | 0.877 pM |
| B12 | 0.302 pM |

Target: T1, cynomolgus monkey TSLP
Experiment: cell-based or functional assay

| Binder | IC50, cyno TSLPR/IL-7Rα Ba/F3 STAT5-luciferase assay |
| --- | --- |
| B15 | 0.03 µg/mL |
| B16 | 0.04 µg/mL |

The binders below were run against T4, human thymic stromal lymphopoietin … (assay: cell-based or functional assay).

| Binder | IC50, human TSLPR/IL-7Rα Ba/F3 STAT5-luciferase assay |
| --- | --- |
| B15 | 0.02 µg/mL |
| B16 | 0.03 µg/mL |

Target: T1, cynomolgus monkey TSLP
Experiment: indirect ELISA, coated cyno TSLP; 95% CI in brackets
Protocol: (§1) The next day, the plates were washed three times with ELISA wash buffer and blocked with ELISA assay diluent B (BioLegend) for one hour at room temperature (RT). […] Antibody binding was assessed using an 8-point titration curve in triplicates (1:3 serial dilution starting at 10 μg/mL). The plate was washed three times with ELISA wash buffer, and HRP-conjugated anti-human IgG-HRP secondary antibody (Jackson ImmunoResearch Laboratories, Inc.) was added to wells at a 1:5000 dilution in 1×ELISA assay diluent. Secondary antibody was added to detect binding of the primary antibody to the antigen. The plate was incubated for 30 minutes at room temperature with the secondary detection antibody, then the plates were washed three times with ELISA wash buffer and developed with TMB substrate solution (Invitrogen, Waltham, MA). The HRP enzymatic reaction was stopped after about 1 minute with acidic stop solution (Invitrogen), and the absorbance at 450 nm on a Biotek plate reader.
(§2) The EC₅₀ values were calculated using Graphpad Prism 9.2.0 by fitting a four-parameter non-linear regression curve to the average absorbance values of three technical replicates per concentration with three independent experiments. […] N=4 independent experiments with 3 technical replicates. […] N=3 independent experiments with 3 technical replicates.

| Binder | EC80 |
| --- | --- |
| B15 | 0.1 µg/mL |
| B16 | 0.1 µg/mL |

The binders below were run against T2, human IL-7 (assay: direct ELISA: plate coated with 2 µg/mL human IL-7, anti-human IgG-HRP, absorbance at 450 nm).

| Binder | binding result |
| --- | --- |
| B17 | no binding (tested: about 5 µg/ml) |

The binders below were run against T4, human thymic stromal lymphopoietin … (assay: indirect ELISA, coated human TSLP; 95% CI in brackets).
Protocol: as §1, §2

| Binder | EC50 | EC80 | EC90 |
| --- | --- | --- | --- |
| B15 | 0.03 µg/mL | 0.09 µg/mL | 0.15 µg/mL |
| B16 | 0.03 µg/mL | 0.1 µg/mL | 0.18 µg/mL |

Each binder was assayed against T3, mouse TSLP (assay: direct ELISA: plate coated with 2 µg/mL mouse TSLP, anti-human IgG-HRP, absorbance at 450 nm).
Protocol: as §1, §2

| Binder | binding result |
| --- | --- |
| B17 | no binding (tested: about 5 µg/ml) |
| B15 | no binding (tested: about 5 µg/ml) |
| B16 | no binding (tested: about 5 µg/ml) |
